Measured values: PMC5653232
pKd: −log10 of the molar value.

Target: H3K9Cme3-NCP (fluorescein-labelled DNA, unlabelled wild type H2A) (human) (UniProt P0C0S8)
Assay: fluorescence polarisation

Chain of CHD3 PHD1/2 (373–508) (Q12873 373-508): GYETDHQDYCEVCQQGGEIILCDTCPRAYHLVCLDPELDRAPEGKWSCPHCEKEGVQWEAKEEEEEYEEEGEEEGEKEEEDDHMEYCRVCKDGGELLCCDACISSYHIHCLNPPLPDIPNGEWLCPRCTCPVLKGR

“CHD3 PHD1/2 (373–508) (from UniProt Q12873 373-508) (domain or fragment)” showed a pKd of 5.85.
